Measurements from US20140072613A1 (published 2014).

Experiments:
Experiment in all cases: cell-based or functional assay
JAK2(h) = JAK2(h) (human, UniProt O60674 808-1132, limits assumed)
Lck(h) = Lck(h) (human, UniProt P06239 1-509)
GRK5(h) = GRK5(h) (human, UniProt P34947 1-590)
JAK3(h) = JAK3(h) (human, UniProt P52333 781-1124, limits assumed)
PKA(h) = PKA(h) (human, UniProt P17612 1-351)
Bmx(h) = biological target: T1, Bmx(h) (human, UniProt P51813 1-675, limits assumed)
T1 sequence (looked up): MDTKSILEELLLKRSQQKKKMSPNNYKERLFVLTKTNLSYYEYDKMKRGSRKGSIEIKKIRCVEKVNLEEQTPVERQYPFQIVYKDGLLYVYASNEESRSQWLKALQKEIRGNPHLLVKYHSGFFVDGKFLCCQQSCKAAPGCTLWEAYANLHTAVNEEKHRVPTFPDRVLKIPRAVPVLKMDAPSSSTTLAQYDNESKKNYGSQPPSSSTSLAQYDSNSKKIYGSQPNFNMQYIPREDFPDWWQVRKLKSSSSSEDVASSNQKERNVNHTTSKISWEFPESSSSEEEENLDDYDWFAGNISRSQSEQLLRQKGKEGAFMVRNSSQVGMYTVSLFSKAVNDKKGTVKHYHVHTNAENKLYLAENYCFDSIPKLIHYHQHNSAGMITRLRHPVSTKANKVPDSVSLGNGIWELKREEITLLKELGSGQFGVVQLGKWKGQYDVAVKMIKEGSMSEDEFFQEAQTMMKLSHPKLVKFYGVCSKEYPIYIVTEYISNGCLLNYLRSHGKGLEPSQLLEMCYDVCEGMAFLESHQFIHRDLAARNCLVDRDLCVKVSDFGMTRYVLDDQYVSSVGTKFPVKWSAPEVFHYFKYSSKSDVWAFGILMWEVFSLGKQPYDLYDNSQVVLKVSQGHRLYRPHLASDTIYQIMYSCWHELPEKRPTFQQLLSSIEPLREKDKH

Plk1(h) = Plk1(h) (human, UniProt P53350 1-603)
Sequence of Plk1(h) (P53350 whole entry): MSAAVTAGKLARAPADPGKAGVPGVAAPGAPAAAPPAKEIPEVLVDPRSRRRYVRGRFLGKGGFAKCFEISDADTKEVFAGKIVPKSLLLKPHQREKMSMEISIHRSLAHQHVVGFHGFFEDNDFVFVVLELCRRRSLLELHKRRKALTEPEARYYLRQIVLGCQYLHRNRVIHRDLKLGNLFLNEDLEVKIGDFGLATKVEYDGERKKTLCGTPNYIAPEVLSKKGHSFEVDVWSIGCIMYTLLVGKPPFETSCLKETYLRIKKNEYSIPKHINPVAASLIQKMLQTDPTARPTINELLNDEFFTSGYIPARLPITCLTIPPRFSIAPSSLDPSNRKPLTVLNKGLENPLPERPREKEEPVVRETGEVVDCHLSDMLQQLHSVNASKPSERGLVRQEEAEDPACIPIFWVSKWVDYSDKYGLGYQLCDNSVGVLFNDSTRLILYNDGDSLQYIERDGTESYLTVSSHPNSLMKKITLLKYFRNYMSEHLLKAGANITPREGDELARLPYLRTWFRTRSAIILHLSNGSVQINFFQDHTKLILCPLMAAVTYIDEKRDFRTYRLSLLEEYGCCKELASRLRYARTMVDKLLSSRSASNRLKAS

cKit(V560G)(h) = cKit(V560G)(h) (human, UniProt P10721 544-976)
Sequence of cKit(V560G)(h) (P10721 544-976 V560G): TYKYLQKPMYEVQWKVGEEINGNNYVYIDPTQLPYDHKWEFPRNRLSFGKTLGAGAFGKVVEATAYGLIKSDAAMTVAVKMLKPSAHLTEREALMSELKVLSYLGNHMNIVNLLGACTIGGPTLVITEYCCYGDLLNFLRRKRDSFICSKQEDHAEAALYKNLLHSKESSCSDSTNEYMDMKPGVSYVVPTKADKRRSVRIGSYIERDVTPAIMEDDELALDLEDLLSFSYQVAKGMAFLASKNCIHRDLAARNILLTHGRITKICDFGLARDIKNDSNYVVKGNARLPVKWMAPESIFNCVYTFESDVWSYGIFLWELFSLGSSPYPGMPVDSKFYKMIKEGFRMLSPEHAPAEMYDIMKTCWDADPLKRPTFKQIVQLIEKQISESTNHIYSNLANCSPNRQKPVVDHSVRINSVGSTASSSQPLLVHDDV

Sequence of GRK5(h) (P34947 whole entry): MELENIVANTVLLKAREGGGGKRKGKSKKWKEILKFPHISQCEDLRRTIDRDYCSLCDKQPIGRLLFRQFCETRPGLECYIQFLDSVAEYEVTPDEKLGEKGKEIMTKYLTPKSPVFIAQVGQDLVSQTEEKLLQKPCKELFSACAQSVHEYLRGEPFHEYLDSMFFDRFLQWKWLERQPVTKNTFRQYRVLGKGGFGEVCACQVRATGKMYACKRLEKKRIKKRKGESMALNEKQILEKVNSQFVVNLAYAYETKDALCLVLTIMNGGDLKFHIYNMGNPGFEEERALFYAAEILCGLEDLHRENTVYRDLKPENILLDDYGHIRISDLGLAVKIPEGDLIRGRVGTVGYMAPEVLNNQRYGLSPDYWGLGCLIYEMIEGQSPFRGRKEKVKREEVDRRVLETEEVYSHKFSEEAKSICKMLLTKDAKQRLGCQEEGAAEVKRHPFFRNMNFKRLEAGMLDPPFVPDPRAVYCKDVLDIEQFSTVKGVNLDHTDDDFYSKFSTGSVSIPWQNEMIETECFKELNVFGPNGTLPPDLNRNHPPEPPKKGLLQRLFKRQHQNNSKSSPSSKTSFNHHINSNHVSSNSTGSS
Sequence of JAK3(h) (P52333 781-1124 limits assumed): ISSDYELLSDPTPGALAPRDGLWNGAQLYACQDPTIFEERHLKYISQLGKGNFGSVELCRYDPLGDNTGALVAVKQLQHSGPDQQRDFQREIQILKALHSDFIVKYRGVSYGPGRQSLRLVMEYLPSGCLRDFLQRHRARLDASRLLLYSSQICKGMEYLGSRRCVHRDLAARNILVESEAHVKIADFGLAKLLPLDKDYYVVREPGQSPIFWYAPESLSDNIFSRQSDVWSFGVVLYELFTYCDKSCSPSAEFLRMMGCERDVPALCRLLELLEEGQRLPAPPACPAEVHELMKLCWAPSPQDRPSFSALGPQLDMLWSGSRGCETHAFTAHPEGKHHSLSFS
Sequence of Lck(h) (P06239 whole entry): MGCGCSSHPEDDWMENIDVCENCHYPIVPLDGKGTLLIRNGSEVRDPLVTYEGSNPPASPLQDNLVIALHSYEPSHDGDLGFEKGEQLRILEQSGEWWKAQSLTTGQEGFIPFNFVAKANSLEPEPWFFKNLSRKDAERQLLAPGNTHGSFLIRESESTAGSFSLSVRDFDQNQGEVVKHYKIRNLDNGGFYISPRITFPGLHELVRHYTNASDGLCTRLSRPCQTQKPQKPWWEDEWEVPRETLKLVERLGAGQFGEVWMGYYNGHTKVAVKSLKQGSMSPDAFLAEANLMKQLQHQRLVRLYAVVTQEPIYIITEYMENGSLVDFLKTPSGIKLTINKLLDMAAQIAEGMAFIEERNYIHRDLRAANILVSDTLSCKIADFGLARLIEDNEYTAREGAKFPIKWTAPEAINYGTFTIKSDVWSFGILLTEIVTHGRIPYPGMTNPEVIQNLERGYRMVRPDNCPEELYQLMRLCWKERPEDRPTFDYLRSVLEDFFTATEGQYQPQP
Sequence of JAK2(h) (O60674 808-1132 limits assumed): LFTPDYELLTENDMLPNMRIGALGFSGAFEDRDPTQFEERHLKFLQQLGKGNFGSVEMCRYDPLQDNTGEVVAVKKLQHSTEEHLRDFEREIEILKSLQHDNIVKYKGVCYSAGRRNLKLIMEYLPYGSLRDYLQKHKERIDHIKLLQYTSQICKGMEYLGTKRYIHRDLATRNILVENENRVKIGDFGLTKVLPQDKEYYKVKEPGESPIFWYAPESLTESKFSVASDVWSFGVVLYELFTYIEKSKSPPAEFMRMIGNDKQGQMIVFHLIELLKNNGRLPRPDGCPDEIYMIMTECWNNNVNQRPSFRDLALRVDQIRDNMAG

Binder | % activity, 100 µM (JAK2(h)) [%] | % activity, 100 µM (Lck(h)) [%] | % activity, 100 µM (GRK5(h)) [%] | % activity, 100 µM (JAK3(h)) [%] | % activity, 100 µM (PKA(h)) [%] | % activity, 100 µM (Bmx(h)) [%] | % activity, 100 µM (Plk1(h)) [%] | % activity, 100 µM (cKit(V560G)(h)) [%]
FAKLAARLYRKALARQLGVAA [MMI-0300] | 133 | -2 |  |  |  |  |  | 
KAFAKLAARLYRKALARQLGVAA [MMI-0400] |  |  | 131 | 122 | 119 | 26 | 119 | 124
